Laboratory results from a protein production outcome set (Wang et al. 2014).

Test: label from the status in PepcDB records

Row | Sequence | protein production
1 | MTVAIPDLRVCANLTGKTLLICVGAAKCATSWLHDYLGSRPEVTVSPLKELHFFDSKFPEHALGDADGLALARLSFQLGQAGDAVANLRHRAIFQASLDRAQMIYDDNAYFGHFARLCGPQTRCFCDLTPSYSAIGAEGFAYMKRFCASQDIEVKILFLMRDPVRRFWSQLRHLQQMNPVNDVASKWRHALTAPALLARADYRGIVLALEQVFPSANLLCLFYESLFEGDDAIRRLCRFIGIPFAPAATGQRHNETTVRLPLSDDARDAFRHLLAPQYDFCRERFGRSIPGSWLA | failed
2 | MRCMSDDHTHVQEFFEARAADWDSRFPDDGPAHAAAVAELGLREGDRVLDAGCGTGRALPSLRAAVGSSGVVVGVDLTPAMLAAAARAGRGRDGHLLLADVTRLPLGTESLDAVFAAGLIAHLPEPAENLRELARVVRAGGTLALFHPIGRAALAARQGRQITPDDLRAEANLGPLLAGSGWRMTSYVDEDARFLALAVRVKLEHHHHHH | failed
3 | MAAAMVPGRSESWERGEPGRPALYFCGSIRGGREDRTLYERIVSRLRRFGTVLTEHVAAAELGARGEEAAGGDRLIHEQDLEWLQQADVVVAEVTQPSLGVGYELGRAVAFNKRILCLFRPQSGRVLSAMIRGAADGSRFQVWDYEEGEVEALLDRYFEADPPGQVAASPDPTT | failed
4 | MEIIIYIFVSIAIISLQAITPFVIRKSECFGVNVGERANRNAELTQLKKQYVGQVILWTVLVAIIGIALIQGFHWSENIQAGIFIISMFGQLIVSFIIYYRFHHTTLQWKREKIESGEISTNSIIMVDTSFHRRKMVISYTWFVVPLLIFIITLAITAVFYPFAPEEFPVHFDMNGVVTDTVQKSVRAALLLPMLQLGMIALFIFINFVIARSKQTVENENPADSLKRNMLFRQISSKAMLIMCVILVIDFLVMQAVILLSLSPEIMMITMSISIILILLGTVLLAVKVGQGGSRLKFANEPDNVNKPIRDDDAFWKAGVIYFNRNDPALFVEKRFGIGWTINTARPVAWLTFVFIIAAIVFISILF | failed
5 | MKTNEVLETIKARRSVRAYDRKQIPADDLNAILEAGAYAPSGMHYETWHFTAVCNTVKLEELNERIKGAFAKSDDKHLRERGHSETYCCYYHAPTLVIVSNEPKQWWAGMDCACAIENMFLAATSLGIASCWINQLGTTCDDPEVRAYLTSLGVPENHKVYGCVALGYKAEGALLKEKTVKAGTITIVE | not failed
6 | MIGIVMLSKIANIDAARQGLDLKVKVLSLNKKTIKNDRGETTYFYGIIGDDTGTVSFTAWSFPAAVKSGDVVEIKNCYSSLYNGKIRIYVDSRSQVVLKPDEYLEVKRTVELVKLRDLSLTTPYVSVIGRISGIKEKNYDSDRGSKIVYQGFIEDETAKVRISSFGKPLKDGEIVRVENARVSQYNGYMGISIGENSSIDNVQAQIEVGSRPIFIAEIKSPIGGVTITGFAVSVGQGSRIFTKCSICKKILEDGKCKDHPRAPVYLDIFGYFLLSDGTGSLTCYLNKDSFLPYIKMDTEEFKSQAFSMNPNMLIKKNILGKCLSVTGDLRLRDDKITMNASSIKEADADSVKDIEKTIQEEFQLEHHHHHH | failed
7 | MNMGKKIQEMAVWLEFLVGSGLAIFFHLVLHYEQAAYVIFGIGILLALGTYLIREEIEKNRSHLVEQYQQAHEIPFAMAGIADPECLAKAHELIAGTRRTITILQQGYIPLDENEFYLEGAKLSDQAVREIRAVDPLMAGWWTRGALVNFYQANLRALDRGVRIRRIFVVNREELGEPEVQKVLLSHYRDDIDIRIVYRDELPAAGEIIGRDTNSSFDFALYDDRVATDVFAHPGKYYGRKTAQPMEVAKYRHLYELIEHSAHTVSEDGDRIVPSAEVMPLAS | failed
8 | MQKINIDRHATAQINMLANKLMLKSSTAYTQKFGIGMTEWRIISVLSSASDCSVQKISDILGLDKAAVSRTVKKLEEKKYIEVNGHSEDKRTYAINLTEMGQELYEVASDFAIEREKQLLEEFEEAEKDQLFILLKKLRNKVDQM | not failed
9 | SNQDITQPTAIIAVVGVGAEQGIGAAVCRRFAQEKFKVYVAGRTLNKVEKVAAAIHRQGGQAVAYVLDAENEQQLQTLFDHLNDQPEALAAVIHNVGGNIPSIFLQSSLKFFSQMWRSTFLSSVLVAQRSLSIFQKQQQGTLIFTGASASLRGKPFFAAFSMGKSALRSYALNLAELYRSQNIHVAHVMVDGMVDGDRVNKALWGLGRLARLTRGTGGLNIDAIAENYWMLYQQNVDLWT | failed
10 | MDPFASLAEAYEAWYGTPLGAYVIAEEERALKGLLPPGESLLEVGAGTGYWLRRLPYPQKVGVEPSEAMLAVGRRRAPEATWVRAWGEALPFPGESFDVVLLFTTLEFVEDVERVLLEARRVLRPGGALVVGVLEALSPWAALYRRLGEKGVLPWAQARFLAREDLKALLGPPEAEGEAVFLAPEAHPPYEEADLAGRRAGNRPALYLGRWR | not failed
11 | MKGTNTIYIIISSILLAYIMQIFVLYPFTAVAIGIPLGLLSRKYSAIGGFLIGFLSSLSLYLIYPINAVSKIAEIIGQLIGINPFLVVLLYPLIYGTISLISALLFYYIVRLNK | failed
12 | MGHHHHHHSHSEVAIKIDFDFAPGSFDDQYQGCSKQVMEKLTQGDYFTKDIEAQKNYFRMWQKAHLAWLNQGKVLPQNMTTTHAVAILFYTLNSNVHSDFTRAMASVARTPQQYERSFHFKYLHYYLTSAIQLLRKDSIMENGTLCYEVHYRTKDVHFNAYTGATIRFGQFLSTSLLKEEAQEFGNQTLFTIFTCLGAPVQYFSLKKEVLIPPYELFKVINMSYHPRGNWLQLRSTGNLSTYNCQLLKASSKKC | failed
13 | MKNQLIDRLTRYTTIDTQSDPKSTTTPSTEKQWDLLHLLEKELQQLGLPTDLDENGYLFATLESNIDVDVPTVGFLAHVDTSPDFNASNVKPQIIENYDGKPYKLGNTKRVLDPKVFPELNSLVGHTLMVTDGTSLLGADDKAGIVEIMEAICYLQEHPEIKHGTIRIGFTPDEEIGRGPHKFDVDRFNADFAYTMDGSQYGELQYESFNAAEAVITCHGVNVHPGSAKNAMVNAIRLGEQFDSLLPDSEVPERTEGYEGFYHLMNFEGTVEKATLQYIIRDHDKKQFELRKKRILEIRDDINAHFENYPVKVDISDQYFNMAEKILPLPHIIDIPKRVFAKLDIPANTEPIRGGTDGSQLSFMGLPTPNIFTGCGNFHGPYEYASIDVMEKAVQVIIGIVEDIAENH | failed
14 | SDPEISEQDEEKKKYTSVCVGREEDIRKSERMTAVVHDREVVIFYHKGEYHAMDIRCYHSGGPLHLGEIEDFNGQSCIVCPWHKYKITLATGEGLYQSINPKDPSAKPKWCSKGVKQRIHTVKVDNGNIYVTLSKEPFKCDSDYYATGEFKVIQSSS | failed
15 | MIIDTPLADRYPHAMKNQDESGDGWESLCERCGLCCFEKIEDENGTVFFTATPCRYLDVTTRQCVIYDKRFDINPECVKLTEELVRTLPWLHDDCAYRKALGVRLSKVRMNGRNKGKRG | failed
16 | APFFEMKLKHYKIFEGMPVTFTCRVAGNPKPKIYWFKDGKQISPKSDHYTIQRDLDGTCSLHTTASTLDDDGNYTIMAANPQGRISCTGRLMVQAVN | not failed
17 | MKTLQTHRVLQALIGHFTPFLESGITELMINTEQELWLYKVNNTREKRGHALFDKAFLLRFCEQLASFRGLFFDEEHPTLNCSIPFTRYRVSANHFSITTNNQITLNIRVPRLKPLSLEDFTFKASDPKSLKDLALKGHNILISGETSSGKTSLLNALLDCVNKDERVVSVEDSQELDLKAFSNCVGLLVGKQENTRFNYEDALNMAMRLNPDRLIVGEIDTRNAALFLRLGNTGHKGMLSTIHANSAQNTLEALSLNLSMRYMYSLDKDLMRAYFKSAIDVIVHVNRINNERQIAEVLWTKEL | failed
18 | MAAAGEEYSSDKIEERSLAAIDSMIDPDISGPMRHIVVKAIHAAGDFAIAPLIRYSDGFFKSMLAKLKEGCTIICDSEMVRAGIYSRPVLERNRVVCYLNDVRSKEMADVNGITRSAAGIRIAMQDHRNSVIVIGNAPTALLEAMRMIEENGWYDIPIVGIPVGFINASKAKEGLVSSHIEYISVEGHRGGSPIAASIVNGFGRFLA | not failed
19 | MREDNPNWFLRWEEELPSPEELIPISQTLITPHLALAFQIGSPNHHLGSKRTTAIYHQKLQSSTTPTTPTPTPPPMMMNSDFGGGDSTDLGSGSIGGEPARTLKRPRLVWTPQLHKRFVDAVGHLGIKNAVPKTIMQLMSVEGLTRENVASHLQKYRLYLRRMQGGNGNGITGGHVIVSDSATDRLFASSPVPAHFLSPDYLMPPLEHSYMGKHVITQQNQVVRNLRYEDSEYGHGSMKMLKLFPAGN | not failed
20 | FDGNLKRYLKSEPIPESNDGPVKVVVAENFDEIVNNENKDVLIEFYAPWCGHCKNLEPKYKELGEKLSKDPNIVIAKMDATANDVPSPYEVRGFPTIYFSPANKKLNPKKYEGGRELSDFISYLQREAT | not failed
21 | MIIRYATPDDIEDMVSIFIDAYNFPGPRESVKSSFEISLEVQPDGCLLAFLKDEPVGMGCIFFYNKQAWIGLMGVKKAYQRRGIGTEVFRRLLEIGRRKVDTIRLDASSQGYGLYKKFKFVDEYRTVRYELMERPIKRVEGVVEVNKIPNWVKEIDKKAFGDDRIRVLEAYMRRGARLLCAENEGFGLVYRGKIGPLVADSPRVAEKILLKAFQLGAREIIIPEVNKDALELIKIFKPSQVTSCMRMRLGSKIEEKVDIYYGILAYAKG | not failed
22 | MKKIGIIGAGGIARAHATALSTIKNAELVGVYDINQQNAESFVKTFGGKSFENVDELIDASEGLIVASPNFCHKEHALQALGKHKHVLCEKPMAISLEEASIMKDTAERLSVRASMGFNYRYLSYVNILKSLIINNELGNILSIKVHFKKNSALRRKKFTWRDDANSKKTSGSLGDLGIHLIDMVWYLFESDFITESVRAKMNTNVKTKEDKQVLVDDYAEIYGQLRNKVFVNIITSKCSVPEDCGFSIEVVGHKKEFKYHTGNPHVYKLIDGLNVVDCPVPQSLLNDPPNEFYGWADSFRSELINWIASTQNDWVEIPSFSDGFRSQEVLEMFFEKDS | failed
23 | MGNPADQKDSKAKQKTEVFPVTIDDASNQDVTIKKEPKKIVSLMPSNTEITYALGLGDKVVGVTTNDTYPKEVKKVEKVGDMNVNVEKVISLKPDLVLAHESSMSASADAIKQLKDAGITVLTVNDAQSFSEVYKSIEMIGEAGGAEKKADQLVKSMKSDLKDIQEKAKTISKDEEKSVFIEVSPDPDIYTTGKDTFMNEMLNVIHAKNAAADQTGWVQMTDEAIVKLNPDAIVTTDGVKAKAVEKRDGWSEINAVKHHRVYDVDPDLVTRSGPRLIEGVEELAESIYPDTFKE | failed
24 | MTDIHPREILICTIAKLLDGVRHVAVGASSPIPASGAMLLRALKQQAGETGPRISILGSVEHNFFTNGSAELFDCAGQGRIDAFFLGGGQIDGQGNINLVGTGEYPQTQVRWPGSFGSAYLYYVVPRVILFREEHTPRAMVEKVDFISAPGLSDEGVYRPGGPIALLTSKALFRFDKNRRGFELESVHPGYDLAAIKEATGFKFAHDDVPAQTALPDPQVLKLLRERVYDEVAETYPDFAAQMRREIAQPLPRAS | failed
25 | MQAVHGRSRKPADPAYQAGLAEELRQSYGRAGLIELYGRFATGDGVVDSLMRKAIWQAITRRCGEGLQVASGAGFKHPETFEIGDGVFIGAQAYIQGRYDGTCVIGDNVWIGPMAYFDARDLVIEDSVGWGPGAKVLGSTHTALPIDVPIIRTDLEIRPVRICAEADIGTNATILPGVTIGKGAIVGAGAVVVSDVEPFSVAAGVPAKFIRWRSENDPMTNMSREGRS | failed
26 | MEEMFETSLKVIEQSGWLAPVLFIMLHVFRQVFFIPVIIICLVGGYLFGSFYGSLYSIIGLTATSALFYGIVHGFPRFLAKVSQLKKRFLGEKESLSLPQMMLLRIVPFIHFHLVSLYVMETRPTFREYMKISFYLSMPPAIIYTLFGDMIHELPLVGTVVFALFIGLLCFMARRKEQRYAWQEFFKA | failed
